Numbering of substitutions follows the chain as printed.
B1: mAb 8F24 (antibody, V domains shown)
VH: EVQLLESGGGLVQPGGSLRLSCAASGFAFSSYGMSWVRQAPGKGLEWVSAFSGSGTSTYYADSVKGRFTISRDKSKNTLYLQMNSLRAEDTAIYYCAKPPGPYIVVAGLFENWGRGTLVTVS
VL: EIVMTQSPATLSVSPGERVTLSCRASQSITDGLAWYQQKSGQAPRLLIYGASTRATGIPARFSGSGSGTEFTLTISSLQSEDFAVYYCQQYNNWPPVTFGQGTKVEIKR
B2: mAb 25F7 (antibody, V domains shown)
VH: B1 VH
VL: QSVLTQPPSVSGAPGQRVTISCTGTSSNIGAGYEVHWYQQLPGTAPKLIINANTNRPSGVPDRFSGSQSGTSASLAITGLRAEDEADYYCQSFDSSLSGWLFGGGTKLTVLG
B3: mAb 2K11 (antibody, V domains shown)
VH: EVQLVESGGGLVQPGGSLRLSCVASTFSLINYWMTWVRQAPGKGLEWVANIKQDGFEKYYVDSVKGRFTISRDNAKNSLYLQMNSLRVEDTAVYYCARQGSYADTYFYHYGMDVWGQGTTVTVS
VL: QSALTQPPSVSGAPGQRVTISCTGSSSNIGAGYDAYWYQQLPGTAPKLLIYGNSNRLSGVPDRFSASKSGTSASLAITGLQAEDEADYYCQSYDSSLSIFGGGTKLTVLR
B4: mAb 6K14 (antibody, V domains shown)
VH: EVQLVESGAEVKKPGASVKVSCKASGYTFTSFDINWVRQAPGQGLEWMGWMTPTSGKTGYAQKFQGRITMTRNTSINTAYMELSSLRSEDTAVYFCARGPERRTTIFDVILDWFDPWGQGTLVTVS
VL: DIVMTQSPFSLSLSPGERATLSCRASQSISNYLAWYQQKPGQAPRLLIYDSSNRATGVPARFSGSGSGTDFTLTISSLEPEDFAVYYCQQRSNWMYTFGQGTKVEIKR
B5: mAb 10E15 (antibody, V domains shown)
VH: EVQLLESGGGVVQPGRSLRLSCAASGFTFRTYGMHWVRQAPGKGLEWVAVISHDGNLKYYGGSVKGRFTISRDNSKNALYLQMNSLRVDDTALYYCARGIGITDAFDIRGQGTMVVVS
VL: QSVLTQPPSVSAAPGQKVTISCSGSSSNIGKNYVSWYQQLPGTAPKLLIYDNDKRPSGIPDRFSGSKSGTSATLGITGLQTGDEADYHCGAWDSSLNGGVFGGGTKVTVLG
B6: mAb 3E22 (antibody, V domains shown)
VH: EVQLVESGAEVKKPGASVKVSCKASGYTFSRYYIHWVRQAPGQELEWMGWINPDSGDTNYAQKFRGRVTMARDTSISTVYMELNSLRYDDTAVYFCARIIWSSSGMDVWGQGTTVTVS
VL: QSALTQPASVSGSPGQSITISCTGTSSDVGSYNLVSWYQQHPGKAPKLMIYEVSKRPSGVSNRFSGSKSGNTASLTISGLQAEDEADYYCHLYVGSSNWVFGGGTKLAVLG
B7: mAb 5J8 (antibody, V domains shown)
VH: EVQLVESGPGLVKPSDILSLTCAVSGYSISSNYYWGWIRQPPGKGLEWIGSIYHSGSTYYKPSLESRLGISVDTSKNQFSLKLSFVSAADTAVYYCARHVRSGYPDTAYYFDKWGQGTLVTVS
VL: SYVLTQPPSVSVAPGETARISCGGNNIGTKVLHWYQQTPGQAPVLVVYDDSDRPSGIPERFSGSNSGNTATLTISRVEVGDEADYYCQVWDISTDQAVFGGGTKLTVLG
B8: 5J8 Fab (Fab, V domains shown)
VH: B7 VH
VL: B7 VL
B9: mAb 18G6 (antibody, V domains shown)
VH: QVQLKESGPGLVKPSETLSLTCTVSGGSISSSNYNWGWIRQPPGKGLEWIGSVYYSGSTYFNPSLKSRVTISVDTSKNQFSLKLTSVTAADTAVYYCARLIAFYYDTNGYTWGQGTLVTVS
VL: NSIMTQSPFTLSASVGDKVTITCRASQSISPWLAWYQQKPGKAPKLLIYKASSLETGVPSRFSGSESGTEFTLTISGLQPDDFATYYCQQYSSFARTFGQGTKVEIKR
B10: mAb 2O10 (antibody, V domains shown)
VH: EVQLVESGGGLVQPGGSLRLSCAASGFTFNSYWMTWVRQAPGKGLEWVANINQDGSEKFFVDSVKGRFTISRDNAKTSLYLQMNSLRVEDTAVYYCAREGAPYDTYYYYYAMDVWGQGTTVTVS
VL: QSVLTQPPSVSGAPGQRVTISCTGTSSNIGAGYGVHWYQQLPGAAPKLLVYGNSNRPSGVPDRFSGSKSGTSASLAITGLQAEDEADYYCQSYDISLSGSNVFGTGTKVTVLG
B11: mAb 25J3 (antibody, V domains shown)
VH: QVQLQESGPGLVRPSETLSLTCNVSGDSINDYYWSWIRQPPGKGLEWIGYIYYSGSTNYNPSLNSRVTISVEMSKNQFSLILNSVTAADTAVYYCARVDYDSGGSFDPWGQGTLVTVS
VL: QSVLTQPPSVSGAPGQRVTISCTGSSSNIGAGYDVHWYQQLPGTAPKLLIYGNSNRPSGVPDRFSGSKSGTSASLAITGLQAEDEADFYCQSYDSRLSGYVFGTGTKVTVLG
B12: mAb 3J10 (antibody, V domains shown)
VH: EVQLVESGGGVVQPGRSLRLSCAASGFSFSNYAMHWVRQAPGKGLEWVALISFDGSDKYYADSVKGRFTMSRDNSKNTLYLQMNSLRAEDTAVYYCARDEPYCGGDCFAFDVWGQGTMVTVS
VL: B11 VL with G52A, S54N, F88Y, R96S, Y100G, K107T
B13: mAb 11J19 (antibody, V domains shown)
VH: EVQLQESGPGLVKPSETLSLSCTVSGGSITRSSYYWGWIRQPPGKGLEWIGNIYYSGTTYYNPSLKSRVTISVDTSKNQFSLKLSSVTAADTAVYYCARLYGSGLDYWGQGTLVTVS
VL: DIQLTQSPSFLSASVGDRVTITCRASQGSSRYVAWYQQKPGKAPKLLILAASTLHTGVPSRFSGSGSGTEFTLTISSLQPEDFATYSCQQLNGFLLTFGGGTKVEIKR
B14: mAb 6D9 (antibody, V domains shown)
VH: EVQLVESGGGLVQPGGSLRLSCAASGFIFESYWMTWVRQAPGKGLEWVANIKQDGSEKNYVDSVKGRFTISRDNAKTSLYLQMNSLRAEDTAMYYCARSGSNWDTYYYYYGMDVWGQGTTVTVS
VL: EIVLTQSPGTLSLSPGERATLSCRASQSVDSNYLGWYQQRPGQAPRLLIYGASSRATGVPDRFSASGSGTDFTLSISRLEPEDFAVYYCQQYGSSFGQGTKVEIKR
B15: mAb 4K8 (antibody, V domains shown)
VH: EVQLVESGGGLVQPGGSLRLSCAASEFNFKSYWMTWVRQAPGKGLEWVANINQDGSEKNYVDSVKGRFTISRDNAKNSLHLQMSSLRVDDTAVYYCARTGSSWDTYYYYYAMDVWGQGTTVTVS
VL: DIQLTQSPVSLSLSPGERATLSCRASQSVSSSYLVWYQQKPGQAPRLLIYGASSRAPGIPDRFSGSGSGTDFTLTISRLEREDFAVYYCQQYGRSFGQGTKVEIKR

Columns and labels:
[1] = molecular target: recombinant soluble trimeric 1918 H1 HA (A/South Carolina/1/1918, wild type) (Influenza A virus A/South Carolina/1/1918 (H1N1)) (UniProt Q9WFX3); experiment: ELISA, supernate
[2] = molecular target: recombinant soluble 1968 H3 HA (A/Aichi/2/1968) (Influenza A virus A/Aichi/2/1968 (H3N2)) (UniProt P03437); experiment: ELISA, supernate
[3] = molecular target: soluble 1999 H1 HA (seasonal 1999 H1N1) (Influenza A virus (H1N1, 1999)); experiment: ELISA, supernate; further: test concentration or dose not given here
[4] = molecular target: recombinant soluble 1957 H2 HA (A/Japan/305+/1957) (Influenza A virus A/Japan/305+/1957 (H2N2)); experiment: ELISA, supernate
[5] = molecular target: soluble 2004 H5 HA (Influenza A virus (H5N1, 2004)); experiment: ELISA, supernate
[6] = molecular target: recombinant soluble trimeric 2009 H1 HA (A/California/04/2009, wild type) (Influenza A virus A/California/04/2009 (H1N1)); experiment: ELISA, supernate
[7] = molecular target: recombinant soluble trimeric 2009 H1 HA (A/California/04/2009, wild type) (Influenza A virus A/California/04/2009 (H1N1)); experiment: biolayer interferometry (Octet Red), His-tagged HA on anti-Penta-HIS tips
[8] = molecular target: HA of A/swine/Iowa/15/1930 (H1N1) virus (Influenza A virus (H1N1)); experiment: cell-based or functional assay
[9] = molecular target: HA of A/USSR/92/1977 (H1N1) virus (Influenza A virus (H1N1)); experiment: cell-based or functional assay
[10] = molecular target: HA of A/South Carolina/1/1918 (H1N1), wild type, on VLP (Influenza A virus A/South Carolina/1/1918 (H1N1)) (UniProt Q9WFX3); experiment: cell-based or functional assay
[11] = molecular target: HA of A/Brisbane/59/2007 (H1N1) virus (Influenza A virus (H1N1)); experiment: cell-based or functional assay
[12] = molecular target: HA of A/New Jersey/11/1976 (H1N1) virus (Influenza A virus (H1N1)); experiment: cell-based or functional assay
[13] = molecular target: HA of A/L3/1947 (H1N1) virus (Influenza A virus (H1N1)); experiment: cell-based or functional assay
[14] = molecular target: HA of A/California/04/2009 (H1N1) virus (Influenza A virus (H1N1)); experiment: cell-based or functional assay
[15] = molecular target: HA of A/New Caledonia/20/1999 (H1N1) virus (Influenza A virus (H1N1)); experiment: cell-based or functional assay
[16] = molecular target: HA of A/Weiss/1943 (H1N1) virus (Influenza A virus (H1N1)); experiment: cell-based or functional assay

Row | Binder | OD [3] | OD [4] | OD [5] | OD [6] | other results
1 | B1 | 1.01 OD | 0.073 OD | 0.074 OD | 0.714 OD | OD [1]: 0.209 OD; OD [2]: 0.669 OD
2 | B2 | 0.077 OD | 0.871 OD | 0.076 OD | 0.078 OD | OD [1]: 0.075 OD; OD [2]: 0.085 OD
3 | B3 | 0.518 OD | 0.08 OD | 0.075 OD | 1.28 OD | 
4 | B4 | 0.203 OD | 1.93 OD | 1.12 OD | 2.12 OD | 
5 | B5 | 0.514 OD | 0.485 OD | 1.69 OD | 0.996 OD | 
6 | B6 | 2.06 OD | 1.18 OD | 1.57 OD | 2.38 OD | 
7 | B7 | 1.46 OD | 0.077 OD | 0.077 OD | 1.93 OD | 
8 | B8 |  |  |  |  | Kd [7]: 26 nM; koff [7]: 0.0065 s⁻¹; kon [7]: 250000 M⁻¹ s⁻¹
9 | B9 | 0.071 OD | 0.757 OD | 0.071 OD | 0.071 OD | 
10 | B10 | 0.872 OD | 0.073 OD | 0.072 OD | 1.62 OD | 
11 | B11 | 0.071 OD | 0.07 OD | 0.07 OD | 0.071 OD | 
12 | B12 | 0.711 OD | 0.074 OD | 0.075 OD | 0.073 OD | OD [1]: 0.069 OD; OD [2]: 0.076 OD
13 | B13 | 0.071 OD | 0.079 OD | 0.067 OD | 0.081 OD | 
14 | B14 |  |  |  |  | HAI activity [8]: 0.4 µg/mL; HAI activity [9]: 2.5 µg/mL; HAI activity [10]: 0.2 µg/mL; HAI activity [11]: > 20 µg/mL; HAI activity [12]: 1.3 µg/mL; HAI activity [13]: > 20 µg/mL; HAI activity [14]: 0.7 µg/mL; HAI activity [15]: > 20 µg/mL; HAI activity [16]: > 20 µg/mL
15 | B15 |  |  |  |  | HAI activity [8]: < 0.01 µg/mL; HAI activity [9]: 0.32 µg/mL; HAI activity [10]: < 0.01 µg/mL; HAI activity [11]: > 20 µg/mL; HAI activity [12]: 0.16 µg/mL; HAI activity [13]: > 20 µg/mL; HAI activity [14]: < 0.01 µg/mL; HAI activity [15]: > 20 µg/mL; HAI activity [16]: > 20 µg/mL
